Measured values published in article doi:10.1101/2023.04.13.536796.

Target: SEL1L S658P, endogenous, liver of knock-in mice (mouse (endogenous in liver)) (UniProt Q9Z2G6)
Experiment: co-IP

Chain of UniProt Q9Z2G6 (Q9Z2G6 22-790, stated change not applied): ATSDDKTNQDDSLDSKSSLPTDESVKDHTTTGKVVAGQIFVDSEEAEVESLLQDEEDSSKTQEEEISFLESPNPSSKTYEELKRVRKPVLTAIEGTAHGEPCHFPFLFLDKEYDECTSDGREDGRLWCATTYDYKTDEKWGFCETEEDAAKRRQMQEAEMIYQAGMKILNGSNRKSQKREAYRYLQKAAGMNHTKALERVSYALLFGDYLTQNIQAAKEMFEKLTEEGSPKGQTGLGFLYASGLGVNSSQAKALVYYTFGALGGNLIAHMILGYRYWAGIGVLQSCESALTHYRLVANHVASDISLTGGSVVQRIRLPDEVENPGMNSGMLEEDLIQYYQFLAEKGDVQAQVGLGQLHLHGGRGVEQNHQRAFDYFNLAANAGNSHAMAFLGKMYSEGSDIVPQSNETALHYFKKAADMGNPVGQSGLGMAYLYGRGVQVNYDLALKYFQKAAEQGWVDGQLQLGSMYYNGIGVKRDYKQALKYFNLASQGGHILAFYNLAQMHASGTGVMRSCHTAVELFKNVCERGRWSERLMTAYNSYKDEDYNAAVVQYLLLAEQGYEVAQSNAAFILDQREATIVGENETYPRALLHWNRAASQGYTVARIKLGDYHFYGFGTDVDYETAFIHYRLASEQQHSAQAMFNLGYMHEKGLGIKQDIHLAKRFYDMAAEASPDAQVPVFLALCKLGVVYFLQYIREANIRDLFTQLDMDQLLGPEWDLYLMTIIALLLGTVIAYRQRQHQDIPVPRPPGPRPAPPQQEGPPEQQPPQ

## HRD1, endogenous, mouse liver (from UniProt Q9DBY1 1-612) (natural protein)
  fold reduction of co-precipitated HRD1 against WT livers: 5 fold
